Laboratory results taken from article PMC9799976.

How the values were obtained:
[1] = molecular target: full-length human dynein complex (heavy chain with SNAP-tag, IC, LIC, Tctex, LC8, Robl) (human) (UniProt Q14204); experiment: single-molecule TIRF microscopy; 10 nM JIP3 (Halo-JF646) on surface-attached MTs, without or with 1 nM dynein; dwell time of JIP3 on MT-bound dynein
[2] = molecular target: full-length human dynein complex (heavy chain with SNAP-tag, IC, LIC, Tctex, LC8, Robl) (human) (UniProt Q14204)
[3] = molecular target: tail-truncated single-headed human dynein (amino acids 1320-4646 of DYNC1H1), N-terminal GFP (human) (UniProt Q14204)
Sequence of tail-truncated single-headed human dynein (amino acids 1320-4646 of DYNC1H1), N-terminal GFP (human) (Q14204 1320-4646): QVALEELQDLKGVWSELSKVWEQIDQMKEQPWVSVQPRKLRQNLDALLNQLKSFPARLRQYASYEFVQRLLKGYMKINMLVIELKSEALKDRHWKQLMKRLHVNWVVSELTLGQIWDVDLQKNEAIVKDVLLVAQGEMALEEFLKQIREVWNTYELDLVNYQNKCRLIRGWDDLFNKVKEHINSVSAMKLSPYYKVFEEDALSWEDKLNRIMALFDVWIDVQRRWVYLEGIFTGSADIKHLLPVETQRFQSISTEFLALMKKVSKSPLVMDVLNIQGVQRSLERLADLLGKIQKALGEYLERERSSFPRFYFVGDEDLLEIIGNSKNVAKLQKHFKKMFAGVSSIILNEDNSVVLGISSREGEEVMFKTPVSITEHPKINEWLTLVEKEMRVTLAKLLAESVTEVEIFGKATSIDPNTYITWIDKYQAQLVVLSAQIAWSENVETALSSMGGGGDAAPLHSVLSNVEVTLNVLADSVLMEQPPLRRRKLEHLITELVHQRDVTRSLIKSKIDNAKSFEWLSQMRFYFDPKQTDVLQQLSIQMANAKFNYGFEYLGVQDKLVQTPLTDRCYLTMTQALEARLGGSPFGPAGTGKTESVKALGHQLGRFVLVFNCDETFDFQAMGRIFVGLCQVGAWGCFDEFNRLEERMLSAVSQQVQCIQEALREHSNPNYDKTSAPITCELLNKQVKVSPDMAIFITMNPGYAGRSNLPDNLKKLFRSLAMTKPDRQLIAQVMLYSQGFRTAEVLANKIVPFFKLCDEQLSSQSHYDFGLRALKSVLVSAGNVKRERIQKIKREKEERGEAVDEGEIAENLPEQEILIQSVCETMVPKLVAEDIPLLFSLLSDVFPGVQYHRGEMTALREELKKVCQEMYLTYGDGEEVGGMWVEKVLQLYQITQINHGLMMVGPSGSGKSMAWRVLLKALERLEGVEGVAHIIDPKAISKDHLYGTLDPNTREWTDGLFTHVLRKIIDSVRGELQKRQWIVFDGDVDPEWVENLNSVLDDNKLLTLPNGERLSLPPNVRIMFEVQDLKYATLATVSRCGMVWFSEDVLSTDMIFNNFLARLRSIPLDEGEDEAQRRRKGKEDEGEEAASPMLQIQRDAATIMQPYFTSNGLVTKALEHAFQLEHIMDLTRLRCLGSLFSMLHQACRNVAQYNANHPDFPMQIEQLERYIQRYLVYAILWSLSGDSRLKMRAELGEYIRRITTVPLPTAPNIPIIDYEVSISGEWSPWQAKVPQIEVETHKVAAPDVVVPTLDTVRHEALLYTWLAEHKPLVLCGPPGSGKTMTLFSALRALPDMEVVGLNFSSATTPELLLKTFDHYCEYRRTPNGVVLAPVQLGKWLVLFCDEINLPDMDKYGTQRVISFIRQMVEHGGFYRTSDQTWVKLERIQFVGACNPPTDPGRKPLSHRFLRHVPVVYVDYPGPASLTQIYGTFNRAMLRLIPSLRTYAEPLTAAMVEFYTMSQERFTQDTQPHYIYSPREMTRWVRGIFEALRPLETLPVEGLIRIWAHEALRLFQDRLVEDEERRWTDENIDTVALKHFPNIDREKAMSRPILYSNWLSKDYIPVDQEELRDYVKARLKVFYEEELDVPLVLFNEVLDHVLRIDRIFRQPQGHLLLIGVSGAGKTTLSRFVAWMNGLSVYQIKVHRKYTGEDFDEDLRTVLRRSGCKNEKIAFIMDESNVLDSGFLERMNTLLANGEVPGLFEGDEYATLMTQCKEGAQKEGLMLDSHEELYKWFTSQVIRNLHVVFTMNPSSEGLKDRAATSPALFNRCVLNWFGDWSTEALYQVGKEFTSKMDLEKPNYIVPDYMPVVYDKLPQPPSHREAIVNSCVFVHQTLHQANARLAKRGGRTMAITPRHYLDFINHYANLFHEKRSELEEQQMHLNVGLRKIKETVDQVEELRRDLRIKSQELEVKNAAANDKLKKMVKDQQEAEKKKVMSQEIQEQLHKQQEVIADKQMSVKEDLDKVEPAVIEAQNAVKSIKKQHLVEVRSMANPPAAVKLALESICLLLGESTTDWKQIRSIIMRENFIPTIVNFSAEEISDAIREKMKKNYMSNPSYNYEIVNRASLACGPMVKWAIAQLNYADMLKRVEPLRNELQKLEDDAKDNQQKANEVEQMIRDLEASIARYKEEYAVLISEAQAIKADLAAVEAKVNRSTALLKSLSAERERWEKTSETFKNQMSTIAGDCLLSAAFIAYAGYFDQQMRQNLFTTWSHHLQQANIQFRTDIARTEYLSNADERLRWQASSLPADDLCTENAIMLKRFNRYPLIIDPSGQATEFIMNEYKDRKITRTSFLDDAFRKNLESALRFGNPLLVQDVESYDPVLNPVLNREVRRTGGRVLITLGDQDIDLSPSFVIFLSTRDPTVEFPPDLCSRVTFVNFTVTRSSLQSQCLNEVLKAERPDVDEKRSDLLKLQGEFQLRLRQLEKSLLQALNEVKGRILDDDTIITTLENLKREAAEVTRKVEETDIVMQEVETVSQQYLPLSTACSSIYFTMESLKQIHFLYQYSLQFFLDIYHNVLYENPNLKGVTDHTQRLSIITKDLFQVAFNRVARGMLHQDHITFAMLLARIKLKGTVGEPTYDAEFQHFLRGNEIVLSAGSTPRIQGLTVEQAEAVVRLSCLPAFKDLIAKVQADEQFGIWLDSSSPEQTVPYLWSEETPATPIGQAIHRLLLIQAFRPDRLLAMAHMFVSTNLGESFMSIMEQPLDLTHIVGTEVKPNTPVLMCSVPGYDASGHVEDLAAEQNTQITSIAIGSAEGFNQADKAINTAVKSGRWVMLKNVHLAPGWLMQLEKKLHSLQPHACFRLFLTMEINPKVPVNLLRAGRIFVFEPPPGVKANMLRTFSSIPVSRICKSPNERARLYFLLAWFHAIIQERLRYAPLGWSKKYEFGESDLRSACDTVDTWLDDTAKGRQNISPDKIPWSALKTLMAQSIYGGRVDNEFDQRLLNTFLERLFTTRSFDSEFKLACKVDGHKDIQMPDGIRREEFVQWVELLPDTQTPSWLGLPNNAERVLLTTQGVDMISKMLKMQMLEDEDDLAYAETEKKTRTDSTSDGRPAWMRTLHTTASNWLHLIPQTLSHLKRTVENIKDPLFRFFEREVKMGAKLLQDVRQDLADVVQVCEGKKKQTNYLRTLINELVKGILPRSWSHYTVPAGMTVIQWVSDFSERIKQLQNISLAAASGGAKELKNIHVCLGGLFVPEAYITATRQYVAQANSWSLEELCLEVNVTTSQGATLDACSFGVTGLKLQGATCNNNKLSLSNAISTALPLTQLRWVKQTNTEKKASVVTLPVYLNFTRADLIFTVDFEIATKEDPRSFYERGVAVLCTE

B1: mouse JIP3 (amino acids 1-240; cloned as 3-240) with C-terminal HaloTag (domain or fragment)
chain: EIQMDEGGGVVVYQDDYCSGSVMSERVSGLAGSIYREFERLIHCYDEEVVKELMPLVVNVLENLDSVLSENQEHEVELELLREDNEQLLTQYEREKALRKQAEEKFIEFEDALEQEKKELQIQVEHYEFQTRQLELKAKNYADQISRLEERESEMKKEYNALHQRHTEMIQTYVEHIERSKMQQVGGSGQTESSLPGRSRKERPTSLNVFPLADGMVRAQMGGKLVPAGDHWHLSDLG
modifications: Halo-JF646 on the HaloTag
**Q.** B1 was tested. Which dwell time of JIP3 on dynein [1] did it give?
**A.** 0.42 s

B2: N-DCX with a C-terminal ybbR-tag (N-DCX-ybbR) (domain or fragment)
chain: MELDFGHFDERDKTSRNMRGSRMNGLPSPTHSAHCSFYRTRTLQALSNEKKAKKVRFYRNGDRYFKGIVYAVSSDRFRSFDALLADLTRSLSDNINLPQGVRYIYTIDGSRKIGSMDELEEGESYVCSSDNFFKKVEYTKNVNPNWSVNVKTSANMKAPQSLASSNSAQARENKDFVRPKLVTIIRSGVKPRKAVRVLLNKKTAHSFEQVLTDITEAIKLETGVVKKLYTLDGKQVTCLHDFFGDDDVFIACGPEKFRYAQDDFSLDENE
modifications: CoA-CF488 or CoA-JF549 on the ybbR-tag
**Q.** How did the velocity of DDJ motor complexes on MTs with 10 nM N-DCX (DDJ only: 0.76 [0.65, 0.89] µm/s) [2] turn out when B2 was run?
**A.** 0.54 µm/s

**Q.** And the velocity of MT gliding powered by surface-bound single-headed dynein with 10 nM N-DCX, not significantly changed (without N-DCX: 0.59 [0.56, 0.63] µm/s) [3]?
**A.** 0.58 µm/s

B3: full-length DCX with a C-terminal ybbR-tag (DCX-ybbR) (natural protein)
chain: MELDFGHFDERDKTSRNMRGSRMNGLPSPTHSAHCSFYRTRTLQALSNEKKAKKVRFYRNGDRYFKGIVYAVSSDRFRSFDALLADLTRSLSDNINLPQGVRYIYTIDGSRKIGSMDELEEGESYVCSSDNFFKKVEYTKNVNPNWSVNVKTSANMKAPQSLASSNSAQARENKDFVRPKLVTIIRSGVKPRKAVRVLLNKKTAHSFEQVLTDITEAIKLETGVVKKLYTLDGKQVTCLHDFFGDDDVFIACGPEKFRYAQDDFSLDENECRVMKGNPSATAGPKASPTPQKTSAKSPGPMRRSKSPADSGNDQDANGTSSSQLSTPKSKQSPISTPTSPGSLRKHKDLYLPLSLDDSDSLGDSM
modifications: CoA-CF488 or CoA-JF549 on the ybbR-tag
**Q.** B3 was tested. Which velocity of DDJ motor complexes on MTs with 10 nM DCX (DDJ only: 0.76 [0.65, 0.89] µm/s) [2] did it give?
**A.** 0.62 µm/s
